Tested on: licensed KIR3DL1+ NK cells
Assay: NK cell degranulation (CD107α staining, flow cytometry) stimulated by patient-derived myeloma target cells
Type: cell-based, human
Details: presence vs absence of SAR650984; myeloma target cells expressing HLA-Bw4-I80 ligand; FIG. 8
Method: The functional capacity of a patient's NK cells stimulated by pre-treatment patient-derived myeloma target cells was assessed in response to SAR650984, using flow cytometry (FIG. 8).

Substance: SAR650984: a humanized anti-CD38 antibody; comprises VH and VL CDR sequences set forth in SEQ ID NOs:1-6
- Degranulation as measured by CD107α staining (surrogate marker for cytotoxicity): greatly enhanced degranulation
